In paper PMC10829871:
pKd: −log10 of the molar value.

Target: Recombinant human LILRB4 protein (ECD, hFc Tag) (human) (UniProt Q8NHJ6)
Test: BLI

Sequence of UniProt Q8NHJ6 (Q8NHJ6 22-259): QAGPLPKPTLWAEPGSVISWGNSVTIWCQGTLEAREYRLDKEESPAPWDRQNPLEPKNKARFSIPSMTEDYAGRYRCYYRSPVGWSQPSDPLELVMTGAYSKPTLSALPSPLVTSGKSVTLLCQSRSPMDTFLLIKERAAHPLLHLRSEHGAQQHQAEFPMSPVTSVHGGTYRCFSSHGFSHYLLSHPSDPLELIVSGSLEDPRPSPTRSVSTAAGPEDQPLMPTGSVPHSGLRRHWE

Recombinant human Galectin 8/LGALS8 protein (from UniProt O00214 1-317) (natural protein)
pKd: 5.99
koff: 0.131 s⁻¹
